Experimental data reported in article PMC6133441, “Characterization of neutralizing antibodies reacting with the 213-224 amino-acid segment of human galectin-9” (PLoS ONE, 2018).

T1: peptide 13 (Homo sapiens, UniProt O00182)
T1 construct: 15-mer of human gal-9, thirteenth of 15 overlapping peptides spanning aa 202-230 (gal-9L coordinates) with a shift of one aa; limits worked out from peptide 1 = 202-216; they are counted from the set
T1 chain: PPMMYPHPAYPMPFI

T2: peptide 12 (Homo sapiens, UniProt O00182)
T2 construct: 15-mer of human gal-9, twelfth of 15 overlapping peptides spanning aa 202-230 (gal-9L coordinates) with a shift of one aa; limits worked out from peptide 1 = 202-216; they are counted from the set
T2 chain: IPPMMYPHPAYPMPF


Legend:
[1] = target: T1, peptide 13; assay: ELISA; competition: Gal-Nab1 (0.06 μg/mL) or Gal-Nab2 (0.3 μg/mL) pre-incubated with each 15-mer peptide (0.0001 to 10 μg/mL), then added to plates coated with gal-9; HRP-conjugated anti-mouse antibodies; percent inhibition; settings: both partners purified
[2] = target: T2, peptide 12; assay: as above; settings: both partners purified
[3] = target: T3, human galectin-8 (Homo sapiens, UniProt O00214, biotin (sites not given)); assay: ELISA; direct ELISA: antibodies coated in a 96-well plate; biotinylated galectins at 1 nM, detected by streptavidin-HRP; for gal-9S also 1h at 37°C with or without lactose 20 mM (S1 Fig); settings: both partners purified
T3 construct: human galectin-8, recombinant; also called h-Gal 8; source: recombinant
T3 sequence (O00214 whole entry): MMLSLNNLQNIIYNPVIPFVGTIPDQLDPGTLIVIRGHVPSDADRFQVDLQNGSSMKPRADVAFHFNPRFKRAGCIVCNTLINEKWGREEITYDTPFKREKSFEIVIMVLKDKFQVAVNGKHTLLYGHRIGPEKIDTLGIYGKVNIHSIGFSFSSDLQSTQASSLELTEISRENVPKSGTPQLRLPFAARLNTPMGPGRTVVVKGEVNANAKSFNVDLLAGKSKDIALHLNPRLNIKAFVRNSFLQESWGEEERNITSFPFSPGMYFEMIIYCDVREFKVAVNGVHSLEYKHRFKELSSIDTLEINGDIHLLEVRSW

[4] = target: T4, human galectin-4 (Homo sapiens, UniProt P56470, biotin (sites not given)); assay: as above; settings: both partners purified
T4 construct: human galectin-4, recombinant; also called h-Gal 4; source: recombinant
T4 sequence (P56470 whole entry): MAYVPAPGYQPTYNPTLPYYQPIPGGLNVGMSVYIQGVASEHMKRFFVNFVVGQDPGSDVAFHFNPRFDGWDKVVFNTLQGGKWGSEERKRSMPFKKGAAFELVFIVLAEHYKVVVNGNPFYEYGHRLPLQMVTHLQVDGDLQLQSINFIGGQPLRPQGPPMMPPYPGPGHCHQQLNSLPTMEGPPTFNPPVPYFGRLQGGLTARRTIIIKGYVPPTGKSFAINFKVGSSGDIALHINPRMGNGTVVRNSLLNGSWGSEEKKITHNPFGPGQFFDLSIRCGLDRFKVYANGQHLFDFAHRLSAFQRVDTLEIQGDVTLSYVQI

[5] = target: T5, human galectin-2 (Homo sapiens, UniProt P05162, biotin (sites not given)); assay: as above; settings: both partners purified
T5 construct: human galectin-2, recombinant; also called h-Gal 2; source: recombinant
T5 sequence (P05162 whole entry): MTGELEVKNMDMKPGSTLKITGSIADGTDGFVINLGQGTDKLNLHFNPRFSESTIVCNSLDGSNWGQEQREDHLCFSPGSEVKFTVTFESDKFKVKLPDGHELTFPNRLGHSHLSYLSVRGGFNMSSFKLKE

[6] = target: T6, human galectin-10 (Homo sapiens, UniProt Q05315, biotin (sites not given)); assay: as above; settings: both partners purified
T6 construct: human galectin-10, recombinant; also called h-Gal 10; source: recombinant
T6 sequence (Q05315 whole entry): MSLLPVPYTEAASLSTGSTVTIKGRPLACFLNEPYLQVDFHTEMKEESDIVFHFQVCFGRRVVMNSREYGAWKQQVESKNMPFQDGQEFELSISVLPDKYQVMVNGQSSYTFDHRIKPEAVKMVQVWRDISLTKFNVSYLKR

[7] = target: T7, human galectin-7 (Homo sapiens, UniProt P47929, biotin (sites not given)); assay: as above; settings: both partners purified
T7 construct: human galectin-7, recombinant; also called h-Gal 7; source: recombinant
T7 sequence (P47929 whole entry): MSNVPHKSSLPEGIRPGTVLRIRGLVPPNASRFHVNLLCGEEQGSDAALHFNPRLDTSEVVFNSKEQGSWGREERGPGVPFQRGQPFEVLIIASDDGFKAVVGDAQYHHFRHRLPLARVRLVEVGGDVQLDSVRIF

[8] = target: T8, human galectin-1 (Homo sapiens, UniProt P09382, biotin (sites not given)); assay: as above; settings: both partners purified
T8 construct: human galectin-1, recombinant; also called h-Gal 1; source: recombinant
T8 sequence (P09382 whole entry): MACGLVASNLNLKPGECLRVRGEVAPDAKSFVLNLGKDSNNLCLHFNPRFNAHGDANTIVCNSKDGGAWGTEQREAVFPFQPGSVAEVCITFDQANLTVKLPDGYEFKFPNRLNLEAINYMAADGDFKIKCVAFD

[9] = target: human recombinant galectin-9, short isoform (gal-9S) (Homo sapiens, UniProt O00182-3, strain, biotin in the direct ELISA (sites not given); unlabelled in the cell assays); assay: cell-based or functional assay
Sequence of human recombinant galectin-9, short isoform (gal-9S) (O00182 whole entry, looked up, change not shown, canonical isoform): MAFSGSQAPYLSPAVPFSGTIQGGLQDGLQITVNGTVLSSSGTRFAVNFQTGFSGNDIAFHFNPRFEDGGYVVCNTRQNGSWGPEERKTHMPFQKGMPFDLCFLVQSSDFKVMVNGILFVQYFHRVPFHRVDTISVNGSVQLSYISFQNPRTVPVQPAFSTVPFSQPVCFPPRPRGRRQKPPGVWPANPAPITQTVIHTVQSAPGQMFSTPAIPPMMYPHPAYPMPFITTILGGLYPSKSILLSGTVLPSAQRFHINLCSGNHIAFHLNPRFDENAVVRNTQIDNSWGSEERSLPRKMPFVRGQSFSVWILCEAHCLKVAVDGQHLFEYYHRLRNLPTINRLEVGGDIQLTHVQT

[10] = target: T9, CTB oligopeptide containing the amino-acids 208 to 232 of gal-9L (Homo sapiens, biotin at the C-terminus: K(biotin)-OH); assay: SPR; Biacore T200; biotinylated CTB or scramble oligopeptide on a streptavidin (SA) chip; Gal-Nab1 and Gal-Nab2 as analytes, 0.05 to 3.2 nM, 40 μL/min, 700 s, PBS with albumin 0.1 mg/mL and tween 0.05%; dissociation 800 s; apparent affinities (avidity); set-up: t1/2: unit not given here; settings: both partners purified
T9 construct: stuffer aa not related to gal-9, designed to increase solubility and accessibility; stuffer aa not related to gal-9; the last lysine carries the biotin; 32-mer; also called CTB-gal-9 peptide; CTB peptide
T9 sequence (chain, as listed by the source): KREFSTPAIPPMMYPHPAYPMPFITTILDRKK

Row | Binder | binding result [1] | binding result [2] | binding result [3] | binding result [4] | binding result [5] | binding result [6] | binding result [7] | binding result [8] | EC50 of prevention of gal-9-induced apoptotic death (annexin-V+ PI+) of activated primary CD3+ T cells; gal-9S 40 nM, 36 h, antibody 0.3 to 100 nM [9] | EC50 of reduction of gal-9-induced non-lethal PS translocation (annexin-V+ PI-) in activated primary CD3+ T cells; gal-9S 40 nM, 36 h, antibody 0.3 to 100 nM [9] | Kd [10] | koff [10] | kon [10] | t1/2 [10]
1 | Gal-Nab1 (antibody, V domains shown, heavy chain CDR1; heavy chain CDR2; heavy chain CDR3; mouse IgG1 heavy chain constant region (isotype IgG1, kappa as stated); light chain CDR1; light chain CDR2; light chain CDR3; mouse kappa light chain constant region (isotype IgG1, kappa as stated); Mouse IgG1, kappa; Raised against the C-terminal part of human gal-9 (residues 191 to 355 of gal-9L); also called anti-gal-9 mAb) VH: KVQLQQSGAELVKPGASVKLSCKASGYTFTDYTIHWVKQRSGQGLEWIGWFYPGSHSIKYNEQFKDRATLTADKSSSTVYMELSRLTSEDSAVYFCTRHGGYDGFDYWGQGTTLTVSS VL: DIVMSQSPSSLAVSVGEKITMSCKSSQSLFYSTNQKNYLAWYQQKPGQSPKLLIYWASTRESGVPDRFTGSGSGTDFTLTISSVKAEDLAVYYCQQYYYFPYTFGGGTKLEIK | binds | binds | no binding (tested: 1 nM) | no binding (tested: 1 nM) | no binding (tested: 1 nM) | no binding (tested: 1 nM) | no binding (tested: 1 nM) | no binding (tested: 1 nM) | 10 nM | 50 nM | 0.01 nM | 2.3e-05 s⁻¹ | 2.3e+06 M⁻¹ s⁻¹ | 8.37
2 | Gal-Nab2 (antibody, V domains shown, heavy chain CDR1; that of Gal-Nab1 has 17); heavy chain CDR3; mouse IgG1 heavy chain constant region (isotype IgG1, kappa as stated); light chain CDR1; light chain CDR2; light chain CDR3; mouse kappa light chain constant region (isotype IgG1, kappa as stated); Mouse IgG1, kappa; Raised against the C-terminal part of human gal-9 (residues 191 to 355 of gal-9L); also called anti-gal-9 mAb) VH: KVQLQQSGAELVKPGASVKLSCKASGYTFTEYTIHWVKQRSGQGLEWIGWFYPGSGSMEYNEKFDKATLTADNSSSTVYMELSRLTSEDSAVYFCERHGGYDGFDYWGQGTTLTVSS VL: DIVMSQSPSSLAVSVGEKVTMSCKSSQSLLYSNNQKNYLAWYQQKPGQSPKLLIYWASTRGSGVPDRFTGSGSGTDFTLTISSVKAEDLAIYYCQQYYSYPFTFGGGTKLEIK |  | binds | no binding (tested: 1 nM) | no binding (tested: 1 nM) | no binding (tested: 1 nM) | no binding (tested: 1 nM) | no binding (tested: 1 nM) | no binding (tested: 1 nM) | 25 nM |  |  |  |  | 
